Assay [1] concerns the target endoxylanase M1 from Trichoderma viride (family 11), Megazyme (Trichoderma viride). Description: cell-based or functional assay.
The target in assay [2] is endoxylanase M6 from a rumen microorganism culture filtrate, Megazyme. Description: cell-based or functional assay.
Assay [3] deals with endoxylanase from Bacillus subtilis (family 11), NV Puratos (Bacillus subtilis) (UniProt P18429). The experiment in a line: cell-based or functional assay.
Assay [4] deals with endoxylanase M4 from Aspergillus niger (family 11), Megazyme (Aspergillus niger). Description: cell-based or functional assay.
Sequence of endoxylanase M4 from Aspergillus niger (family 11), Megazyme (Aspergillus niger) (P55329 28-211): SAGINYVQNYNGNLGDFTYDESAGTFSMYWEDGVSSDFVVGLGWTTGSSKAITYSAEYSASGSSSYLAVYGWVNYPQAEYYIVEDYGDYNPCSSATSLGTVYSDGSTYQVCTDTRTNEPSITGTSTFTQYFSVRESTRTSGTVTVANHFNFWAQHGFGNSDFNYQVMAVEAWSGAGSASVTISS
Assay [5] addresses mixture of ‘TAXI’-like endoxylanase inhibitors obtained after the affinity purification step of example 3, immobilised on NHS-activated Sepharose 4 Fast Flow. The experiment in a line: affinity chromatography on immobilised ‘TAXI’-like endoxylanase inhibitors, activity by Xylazyme-AX method.

Sequence of endoxylanase of A. niger, var. awamori (Quest International enzyme preparation) (P55328 28-211): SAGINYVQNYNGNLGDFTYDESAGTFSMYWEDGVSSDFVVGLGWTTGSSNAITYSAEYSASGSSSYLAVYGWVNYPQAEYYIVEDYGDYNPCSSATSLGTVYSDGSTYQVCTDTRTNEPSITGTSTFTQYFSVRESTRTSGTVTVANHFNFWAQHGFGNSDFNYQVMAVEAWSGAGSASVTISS

On to “HvXI (Hordeum vulgare L. endoxylanase inhibitor)”, for which the level of inhibitor that reduces the endoxylanase activity with 50% (Xylazyme-AX method) in assay [1] was 0.08 µg; in assay [3], 0.27 µg; in assay [4], 0.13 µg. Further, the maximum of inhibition of endoxylanase activity (Xylazyme-AX method) was > 95% in assay [1], 15% in assay [2], 92% in assay [3] and > 95% in assay [4].
Take “MBP (maltose binding protein)-TAXI fusion protein expressed by the pMAL-p2X-TAXI plasmid”: the endoxylanase inhibition activity of periplasmic protein fraction (Xylazyme-AX method) in assay [3] stood at 88%; in assay [4], 99%.
As for “TAXI II (Triticum aestivum L. endoxylanase inhibitor II)”, the maximum of inhibition of endoxylanase activity (Xylazyme-AX method) in assay [1] is > 90%; in assay [2] it was 8%; in assay [3], 77%. Further, the results for the quantity of inhibitor that reduces the endoxylanase activity with 50% (Xylazyme-AX method) in assay [1] and in assay [3] were 0.07 µg and 0.28 µg, respectively. For the same substance, the maximum of inhibition as a function of inhibitor quantity in assay [3] amounted to 80%.
On to “endoxylanase of A. niger, var. awamori (Quest International enzyme preparation)”, for which, in assay [5], the endoxylanase activity retained on the affinity column was found to be 94%.
As for “recombinant TAXI protein expressed by the pHOS31-TAXI plasmid”, the results for the endoxylanase inhibition activity of periplasmic protein fraction (Xylazyme-AX method) in assay [3] and in assay [4] were 81% and 96%, respectively.

The values above are taken from patent US20030195151A1.
